Test results from PMC10397247.

Legend:
Test in all cases: two-hybrid library CCmax;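 further: natural log of median RNA to DNA barcode read ratio; higher means stronger binding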
4H1513-AA = target: T1, 4H1513-AA
T1 chain: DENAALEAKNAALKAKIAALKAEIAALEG

4H1594-AA = target: T2, 4H1594-AA; details: mean of both orientations
T2 chain: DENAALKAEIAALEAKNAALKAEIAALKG

4H1629-AA = target: T3, 4H1629-AA; details: mean of both orientations
T3 chain: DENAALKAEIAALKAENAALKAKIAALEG

4H1845-AA = target: T4, 4H1845-AA; details: mean of both orientations
T4 chain: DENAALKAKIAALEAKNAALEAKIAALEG

4H1874-AA = target: T5, 4H1874-AA; details: mean of both orientations
T5 chain: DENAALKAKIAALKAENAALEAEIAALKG

4H2198-AA = target: T6, 4H2198-AA; details: mean of both orientations
T6 chain: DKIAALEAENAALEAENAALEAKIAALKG

4H2553-AA = target: T7, 4H2553-AA; details: mean of both orientations
T7 chain: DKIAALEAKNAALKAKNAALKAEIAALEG

4H2611-AA = target: T8, 4H2611-AA
T8 chain: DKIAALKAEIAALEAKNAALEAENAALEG

4H2620-AA = target: T9, 4H2620-AA; details: mean of both orientations
T9 chain: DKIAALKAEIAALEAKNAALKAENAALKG

4H2648-AA = target: T10, 4H2648-AA; details: mean of both orientations
T10 chain: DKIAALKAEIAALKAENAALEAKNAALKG

4H2907-AA = target: T11, 4H2907-AA; details: mean of both orientations
T11 chain: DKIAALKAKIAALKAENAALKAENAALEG

4H2944-AA = target: T12, 4H2944-AA; details: mean of both orientations
T12 chain: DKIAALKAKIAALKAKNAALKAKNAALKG

4H3056-AA = target: T13, 4H3056-AA; details: mean of both orientations
T13 chain: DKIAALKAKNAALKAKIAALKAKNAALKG

4H3133-AA = target: T14, 4H3133-AA; details: mean of both orientations
T14 chain: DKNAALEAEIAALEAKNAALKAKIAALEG

4H3162-AA = target: T15, 4H3162-AA; details: mean of both orientations
T15 chain: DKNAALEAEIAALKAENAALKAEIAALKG

4H32-AA = target: T16, 4H32-AA; details: mean of both orientations
T16 chain: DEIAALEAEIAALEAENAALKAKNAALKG

4H3378-AA = target: T17, 4H3378-AA; details: mean of both orientations
T17 chain: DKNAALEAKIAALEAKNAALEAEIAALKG

4H340-AA = target: T18, 4H340-AA; details: mean of both orientations
T18 chain: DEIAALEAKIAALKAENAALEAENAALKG

4H3413-AA = target: T19, 4H3413-AA; details: mean of both orientations
T19 chain: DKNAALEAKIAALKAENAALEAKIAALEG

4H3588-AA = target: T20, 4H3588-AA; details: mean of both orientations
T20 chain: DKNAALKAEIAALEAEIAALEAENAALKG

4H3606-AA = target: T21, 4H3606-AA; details: mean of both orientations
T21 chain: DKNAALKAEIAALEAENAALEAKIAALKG

4H3627-AA = target: T22, 4H3627-AA; details: mean of both orientations
T22 chain: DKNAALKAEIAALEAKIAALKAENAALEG

4H3631-AA = target: T23, 4H3631-AA; details: mean of both orientations
T23 chain: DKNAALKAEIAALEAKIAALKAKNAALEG

4H3697-AA = target: T24, 4H3697-AA; details: mean of both orientations
T24 chain: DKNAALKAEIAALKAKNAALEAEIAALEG

4H3718-AA = target: T25, 4H3718-AA; details: mean of both orientations
T25 chain: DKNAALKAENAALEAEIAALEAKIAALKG

4H384-AA = target: T26, 4H384-AA; details: mean of both orientations
T26 chain: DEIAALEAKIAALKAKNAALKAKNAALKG

4H3865-AA = target: T27, 4H3865-AA; details: mean of both orientations
T27 chain: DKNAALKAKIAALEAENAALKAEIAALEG

4H697-AA = target: T28, 4H697-AA; details: mean of both orientations
T28 chain: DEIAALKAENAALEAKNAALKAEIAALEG

4H982-AA = target: T29, 4H982-AA; details: mean of both orientations
T29 chain: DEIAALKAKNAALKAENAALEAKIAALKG

Q3-AA = target: T30, Q3-AA; details: mean of both orientations
T30 chain: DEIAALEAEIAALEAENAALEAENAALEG

Q7-AA = target: T31, Q7-AA; details: mean of both orientations
T31 chain: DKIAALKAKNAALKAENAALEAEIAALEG

Q8-AA = target: T32, Q8-AA; details: mean of both orientations
T32 chain: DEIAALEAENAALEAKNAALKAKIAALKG

DENAALEAKNAALKAKIAALKAEIAALEG [4H1513-AA]
interaction score (4H1513-AA): -1.35
interaction score (4H1594-AA): -1.55
interaction score (4H1629-AA): -1.62
interaction score (4H1845-AA): -1.62
interaction score (4H1874-AA): -1.02
interaction score (4H2198-AA): 1.63
interaction score (4H2553-AA): -1.64
interaction score (4H2611-AA): -1.21
interaction score (4H2620-AA): -1.68
interaction score (4H2648-AA): -1.14
interaction score (4H2907-AA): -1.65
interaction score (4H2944-AA): -1.86
interaction score (4H3056-AA): -1.71
interaction score (4H3133-AA): -1.2
interaction score (4H3162-AA): -1.99
interaction score (4H32-AA): -0.712
interaction score (4H3378-AA): -1.77
interaction score (4H340-AA): -1.57
interaction score (4H3413-AA): -1.28
interaction score (4H3588-AA): -0.131
interaction score (4H3606-AA): 0.638
interaction score (4H3627-AA): -0.0527
interaction score (4H3631-AA): 0.267
interaction score (4H3697-AA): -2.13
interaction score (4H3718-AA): 1.82
interaction score (4H384-AA): -1.22
interaction score (4H3865-AA): -1.9
interaction score (4H697-AA): -1.68
interaction score (4H982-AA): -1
interaction score (Q3-AA): -1.16
interaction score (Q7-AA): -0.188
interaction score (Q8-AA): -1.06
